{
  "source": "paper PMC4297295",
  "about": "“Structural Conservation Despite Huge Sequence Diversity Allows EPCR Binding by the PfEMP1 Family Implicated in Severe Childhood Malaria” (Cell Host & Microbe, 2015)",
  "molecules": {"B1": {"name": "CIDRα1.5b domain 1918-5 (patient isolate 1918) (domain or fragment, Plasmodium falciparum)", "chain": "PDCGVKCTNGKCEEKTDVDGNCGNKETYIPPRDISPTEISVLYSGYKRDDISEKLETFCREPTNNKSKNNETWKCYYKHSYNNKINKCIRQNEENIKNKLIINLDTFFEFWVRSFLNDTIDWKYDLNTCMNFTNTTKCNNNCNKNCKCFEQWVNKKETEWKNVAQYFFKHNEISKKKYCEILKDIFENYYVEVIKKVFKGDNKWKEIMVDIKNKIDCSNLKNGTEHLEKIINVLINQEQADATTCLKNNPIESCPKAEPQKSDENTQPQDTPPNSC", "notes": "The C-terminal V5 and His tags are told for the newly synthesised domains (D1:p2); also called CIDRa1.5b 1918-5_1918; 1918-5 (1.5b)"}},
  "key": {"[1]": {"target": "endothelial protein C receptor, extracellular domain (human) (UniProt Q9UNN8)", "assay": "small-angle X-ray scattering"}, "[2]": {"target": "endothelial protein C receptor (EPCR), extracellular domain, not biotinylated (human) (UniProt Q9UNN8)", "assay": "AUC"}, "[3]": {"target": "endothelial protein C receptor (EPCR), extracellular domain, biotinylated on the N-terminal BAP tag (human) (UniProt Q9UNN8)", "assay": "SPR"}, "[4]": {"target": "endothelial protein C receptor (EPCR), extracellular domain, not biotinylated (human) (UniProt Q9UNN8)", "assay": "SEC-MALS; Superdex 75 analytical column, light scattering at 662 nm at 8 angles (Heleos 8), masses by the Zimm equation (ASTRA 6.1); HB3var03 CIDRα1.4, EPCR and their complex"}, "[5]": {"target": "CIDRα1.4 domain of PfEMP1 HB3var03, E. coli construct with domain boundaries for crystallisation (Plasmodium falciparum)", "assay": "ITC; MicroCal iTC200, 25°C, 20 mM HEPES pH 7.5, 150 mM NaCl; EPCR (36 µM by the legend, 50 µM by the supplemental methods) injected into the cell with HB3var03 CIDRα1.4"}, "[6]": {"target": "T1, endothelial protein C receptor (EPCR), extracellular domain, biotinylated on the N-terminal BAP tag (human, UniProt Q9UNN8 18-210, biotin attached to the N-terminal BAP tag (BirA))", "T1 construct": "also called biotinylated recombinant EPCR; ECPR", "T1 sequence": "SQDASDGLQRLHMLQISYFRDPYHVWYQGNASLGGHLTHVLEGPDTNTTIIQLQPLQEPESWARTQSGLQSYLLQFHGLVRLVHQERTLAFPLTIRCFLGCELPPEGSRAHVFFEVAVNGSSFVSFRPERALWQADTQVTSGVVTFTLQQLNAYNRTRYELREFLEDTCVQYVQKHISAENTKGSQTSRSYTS", "assay": "SPR; Biacore T200; biotinylated EPCR captured on a CAP chip (Biotin Capture Kit) to 150 RU, fresh for each cycle; two-fold dilution series of each CIDRα1 injected for 240 s, dissociation 300 s; 20 mM HEPES pH 7.5, 150 mM NaCl, 0.005% Tween-20, 25°C; surface without EPCR subtracted; global fit to a 1:1 interaction model", "conditions": "both partners purified"}},
  "data": [
    {"molecule": "DD2var32 DBLα1.7-CIDRα1.4-DBLβ1 (the three membrane distal domains) (domain or fragment)", "values": [
      {"measurement": "stoichiometry N", "setting": "[1]", "value": "1 PfEMP1:EPCR"}
    ]},
    {"molecule": "CIDRα1.4 domain of PfEMP1 HB3var03, E. coli construct with domain boundaries for crystallisation (domain or fragment)", "values": [
      {"measurement": "stoichiometry N", "setting": "[2]", "value": 1},
      {"measurement": "Kd", "setting": "[3]", "value": 0.37, "unit": "nM"},
      {"measurement": "koff", "setting": "[3]", "value": 0.000197, "unit": "s⁻¹"},
      {"measurement": "kon", "setting": "[3]", "value": 532000, "unit": "M⁻¹ s⁻¹"},
      {"measurement": "stoichiometry N", "setting": "[4]", "value": 1}
    ]},
    {"molecule": "endothelial protein C receptor (EPCR), extracellular domain, not biotinylated (from UniProt Q9UNN8 18-210)", "values": [
      {"measurement": "Kd", "setting": "[5]", "value": 1.5, "unit": "nM"},
      {"measurement": "stoichiometry N", "setting": "[5]", "value": 0.94}
    ]},
    {"molecule": "B1", "values": [
      {"measurement": "Kd", "setting": "[6]", "value": 229, "unit": "nM"},
      {"measurement": "koff", "setting": "[6]", "value": 0.000108, "unit": "s⁻¹"},
      {"measurement": "kon", "setting": "[6]", "value": 471, "unit": "M⁻¹ s⁻¹"}
    ]}
  ]
}
